Patent US6207389A, “Methods of controlling T lymphocyte mediated immune responses” (HRC Research and Development Limited Partnership, priority 1995, dated 2001)

Assays:
[1] = tested on: C57/B6 and SJL mice lymph node cells; assay: Immunization and T cell proliferation assay, non-diabetes prone control mice (Example 11); type: in vivo, mouse; settings: 50 μg sc in complete Freund's adjuvant
Description: (§1) Recombinant truncated p69 was prepared by expression of a portion of the cDNA of IS4. The cDNA was cut a few nucleotides downstream of the 3' terminal of exon 3 and was subcloned into the PET™ expression system according to the manufacturer's recommendations (Novagen Inc., Madison, Wis.). The truncated protein contains 100 amino acids and is essentially identical with the murine molecule.
(§2) Antigens were injected subcutaneously in complete Freunds' adjuvant, and local lymph nodes and blood samples were collected 10 days later. Triplicate cultures of 2×10^5 lymph node cells were incubated for 5 days in serum-free HGM-af Medium™ (Promo Cell, Heidelberg, Germany) in the presence of 1 μg of protein or synthetic peptide as recall antigen. Six hours before harvesting, 1 μCi ^3 H-thymidine (6.7 Ci/mmol) was added to the wells, and isotope incorporation was analysed by liquid scintillation counting. Values are expressed as mean counts per minute ± standard deviation (mean cpm ± SD).
(§3) Young male NOD mice (H2^G7, IE^-/-) received a single immunization with truncated p69 (as encoded by IS4 cDNA) in complete adjuvant, and antibody and T cell proliferative responses were measured 8-10 days later. MHC disparate C57/B6 (H2^b, IE^-/-) and SJL (H2^s, IE^-/-) mice served as non-diabetes prone controls (FIG. 31).

[2] = tested on: C57/B6 and SJL mice; assay: Serum antibodies to BSA and p69 by fluoroimmunoassay, control mice (Example 11); type: in vivo, mouse; settings: 50 μg sc in complete Freund's adjuvant
Description: (§4) Male non-obese diabetic mice (NOD, 6-7 weeks old) were immunized with 50 μg BSA, ABBOS-short peptide ([…]), recombinant truncated p69 or p69 T cell epitope peptide `Tep69` ([…]) (10). Recombinant truncated p69 was prepared by expression of a portion of the cDNA of IS4. The cDNA was cut a few nucleotides downstream of the 3' terminal of exon 3 and was subcloned into the PET™ expression system according to the manufacturer's recommendations (Novagen Inc., Madison, Wis.).
(§5) Antigens were injected subcutaneously in complete Freunds' adjuvant, and local lymph nodes and blood samples were collected 10 days later. […] Six hours before harvesting, 1 μCi ^3 H-thymidine (6.7 Ci/mmol) was added to the wells, and isotope incorporation was analysed by liquid scintillation counting. Values are expressed as mean counts per minute ± standard deviation (mean cpm ± SD).
(§6) Serum antibodies to BSA and p69 were measured by particle concentration fluoroimmunoassay, as described (11). […] Bound fluorescence was read by an automated ScreenMachine™ instrument (IDEXX, Portland, Me.). Data are expressed in kilofluorescence units relative to a standard mouse serum analyzed in parallel within each assay plate.
(§7) Young male NOD mice (H2^G7, IE^-/-) received a single immunization with truncated p69 (as encoded by IS4 cDNA) in complete adjuvant, and antibody and T cell proliferative responses were measured 8-10 days later. […]

[3] = tested on: NOD mice lymph node cells; assay: Immunization and T cell proliferation assay, NOD mice (Example 11); type: in vivo, mouse; settings: 50 μg sc in complete Freund's adjuvant, recall with 1 μg antigen in vitro
Description: as §1, §2, §3

[4] = tested on: NOD mice; assay: Serum antibodies to BSA and p69 by fluoroimmunoassay, NOD mice (Example 11); type: in vivo, mouse; settings: 50 μg sc in complete Freund's adjuvant
Description: as §4, §5, §6, §7

[5] = tested on: PBMC from children with recent onset diabetes; assay: T cell proliferation assay with BSA and rec-p69, patients (Example 3); type: cell-based, human; settings: 1 μg antigen
Description: (§8) Cultures containing 5×10^4 cells were incubated for 7 days at 37° C. in serum-free HL-1 medium (Ventrex, Portland, Me.) containing 1 μg antigen per well for test samples.
(§9) Control cultures were treated with 1 μg human, chick or horse albumin or an equivalent volume of control recombinant antigen prepared from lysates of E. coli carrying wild type plasmid.
(§10) After an overnight pulse of 1 μci ^3 H thymidine, cultures were harvested and submitted to liquid scintillation counting. Proliferation was expressed as cpm ^3 HTdR×10^-3.
(§11) A parallel set of cell cultures was incubated with the same test antigens or control agents in the presence of 10 U human IL2.

[6] = tested on: PBMC from healthy subjects; assay: T cell proliferation assay with BSA and rec-p69, healthy subjects (Example 3); type: cell-based, human; settings: with or without IL2
Description: as §8, §9, §10, §11

[7] = listed as recombinant truncated p69

B1: ovalbumin (protein, UniProt P01012 2-386, looked up)
Ovalbumin: GSIGAASMEFCFDVFKELKVHHANENIFYCPIAIMSALAMVYLGAKDSTRTQINKVVRFDKLPGFGDSIEAQCGTSVNVHSSLRDILNQITKPNDVYSFSLASRLYAEERYPILPEYLQCVKELYRGGLEPINFQTAADQARELINSWVESQTNGIIRNVLQPSSVDSQTAMVLVNAIVFKGLWEKAFKDEDTQAMPFRVTEQESKPVQMMYQIGLFRVASMASEKMKILELPFASGTMSMLVLLPDEVSGLEQLESIINFEKLTEWTSSNVMEERKIKVYLPRMKMEEKYNLTSVLMAMGITDVFSSSANLSGISSAESLKISQAVHAAHAEINEAGREVVGSAEAGVDAASVSEEFRADHPFLFCIKHIATNAVLFFGRCVSP
notes: bona fide non-self control antigen
T cell proliferative response after immunisation [1]: comparable responses
antibody response after immunisation (anti-p69 or anti-BSA) [2]: comparable responses

B2: truncated p69: 100 amino acid truncated p69 encoded by clone IS4 cDNA, contains Tep69 region, SEQ ID No. 41 (protein)
chain: MSGHKCSYPWDLQDRYAQDKSVVNKMQQKYWETKQAFIKATGKKEDEHVVASDADLDAKLELFHSIQRTCLDLSKAIVLYQKRICSF
T cell proliferative response after immunisation [3]: Vigorous p69-specific antibody and T cell responses
T cell proliferative response after immunisation [3, 7]: vigorous B- and T cell responses
T cell proliferative response after immunisation [1]: not in C57/B6 or SJL strains
T cell proliferative response after immunisation [1, 7]: essentially no responses
antibody response after immunisation (anti-p69 or anti-BSA) [4]: Vigorous p69-specific antibody and T cell responses
antibody response after immunisation (anti-p69 or anti-BSA) [4, 7]: vigorous B- and T cell responses
antibody response after immunisation (anti-p69 or anti-BSA) [2]: not in C57/B6 or SJL strains

B3: rec-p69: recombinant human islet cell antigen p69 expressed in E. coli, SEQ ID No. 2 (protein)
chain: MSGHKCSYPWDLQDRYAQDKSVVNKMQQKYWETKQAFIKATGKKEDEHVVASDADLDAKLELFHSIQRTCLDLSKAIVLYQKGICFLSQEENELGKFLRSQGFQDKTRAGKMMQATGKALCFSSQQRLALRNPLCRFHQEVETFRHRAISDTWLTVNRMEQCRTEYRGALLWMKDVSQELDPDLYKQMEKFRKVQTQVRLAKKNFDKLKMDVCQKVDLLGASRCNLLSHMLATYQTTLLHFWEKTSHTMAAIHESFKGYQPYEFTTLKSLQDPMKKLVEKEEKKKINQQESTDAAVQEPSQLISLEEENQRKESSSFKTEDGKSILSALDKGSTHTACSGPIDELLDMKSEEGACLGPVAGTPEPEGADKDDLLLLSEIFNASSLEEGEFSKEWAAVFGDGQVKEPVPTMALGEPDPKAQTGSGFLPSQLLDQNMKDLQASLQEPAKAASDLTAWFSLFADLDPLSNPDAVGKTDKEHELLNA
proliferative response of patient samples ([5]; absence of IL2): at best a small proliferative response
proliferative response of patient samples ([5]; absence of IL2, listed as recombinant human p69 protein): little or no proliferative response
proliferative response of patient samples ([5]; presence of 10 U IL2, listed as recombinant human p69 protein): full proliferative response
proliferative response of samples from healthy subjects [6]: no significant proliferative response
